Source: patent publication US20120094895A1 (MOSAMEDIX B V, published 2012)

What was measured:
integrin αvβ3 = biological target: T1, integrin αvβ3 (UniProt P06756 31-1048; P05106 27-788, limits assumed); experiment: flow cytometry, fluorescein labeled protein on MCF-7 and THP-1 cells
T1 construct: whole, on cells; Endogenous on MCF-7 and THP-1 cells (human cell lines); also called integrin-receptor

integrin αvβ5 = biological target: T2, integrin αvβ5 (UniProt P06756 31-1048; P18084 24-799, limits assumed); experiment: as above
T2 construct: whole, on cells; Endogenous on MCF-7 and THP-1 cells (human cell lines); also called integrin-receptor
T2 sequence (P06756 31-1048 limits assumed, chain 1 of 2): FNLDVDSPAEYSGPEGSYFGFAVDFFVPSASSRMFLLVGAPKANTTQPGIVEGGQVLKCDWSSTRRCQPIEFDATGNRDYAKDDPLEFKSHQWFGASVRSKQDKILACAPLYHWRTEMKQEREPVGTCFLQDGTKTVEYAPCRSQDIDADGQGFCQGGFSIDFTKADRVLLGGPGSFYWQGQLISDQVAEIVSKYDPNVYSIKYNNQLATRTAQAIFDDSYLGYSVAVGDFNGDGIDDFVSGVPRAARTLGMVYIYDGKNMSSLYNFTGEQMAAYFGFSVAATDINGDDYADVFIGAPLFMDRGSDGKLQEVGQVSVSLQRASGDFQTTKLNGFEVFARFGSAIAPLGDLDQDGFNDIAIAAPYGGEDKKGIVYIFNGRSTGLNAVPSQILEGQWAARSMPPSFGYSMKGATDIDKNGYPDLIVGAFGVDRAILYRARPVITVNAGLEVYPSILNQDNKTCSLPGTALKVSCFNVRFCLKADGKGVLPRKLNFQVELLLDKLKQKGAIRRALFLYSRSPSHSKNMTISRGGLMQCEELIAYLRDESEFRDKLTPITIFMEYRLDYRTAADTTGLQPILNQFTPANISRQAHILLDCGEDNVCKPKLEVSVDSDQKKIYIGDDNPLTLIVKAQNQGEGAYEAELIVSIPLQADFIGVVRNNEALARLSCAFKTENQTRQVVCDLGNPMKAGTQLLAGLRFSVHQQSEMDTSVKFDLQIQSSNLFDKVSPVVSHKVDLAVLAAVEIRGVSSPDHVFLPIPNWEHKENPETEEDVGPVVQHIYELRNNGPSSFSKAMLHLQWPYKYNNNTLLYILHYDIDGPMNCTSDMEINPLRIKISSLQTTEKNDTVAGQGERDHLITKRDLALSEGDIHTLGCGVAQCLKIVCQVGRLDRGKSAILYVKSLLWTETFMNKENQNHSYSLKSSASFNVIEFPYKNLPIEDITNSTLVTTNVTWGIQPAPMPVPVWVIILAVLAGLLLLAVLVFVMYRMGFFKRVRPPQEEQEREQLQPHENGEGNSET
T2 sequence (P18084 24-799 limits assumed, chain 2 of 2): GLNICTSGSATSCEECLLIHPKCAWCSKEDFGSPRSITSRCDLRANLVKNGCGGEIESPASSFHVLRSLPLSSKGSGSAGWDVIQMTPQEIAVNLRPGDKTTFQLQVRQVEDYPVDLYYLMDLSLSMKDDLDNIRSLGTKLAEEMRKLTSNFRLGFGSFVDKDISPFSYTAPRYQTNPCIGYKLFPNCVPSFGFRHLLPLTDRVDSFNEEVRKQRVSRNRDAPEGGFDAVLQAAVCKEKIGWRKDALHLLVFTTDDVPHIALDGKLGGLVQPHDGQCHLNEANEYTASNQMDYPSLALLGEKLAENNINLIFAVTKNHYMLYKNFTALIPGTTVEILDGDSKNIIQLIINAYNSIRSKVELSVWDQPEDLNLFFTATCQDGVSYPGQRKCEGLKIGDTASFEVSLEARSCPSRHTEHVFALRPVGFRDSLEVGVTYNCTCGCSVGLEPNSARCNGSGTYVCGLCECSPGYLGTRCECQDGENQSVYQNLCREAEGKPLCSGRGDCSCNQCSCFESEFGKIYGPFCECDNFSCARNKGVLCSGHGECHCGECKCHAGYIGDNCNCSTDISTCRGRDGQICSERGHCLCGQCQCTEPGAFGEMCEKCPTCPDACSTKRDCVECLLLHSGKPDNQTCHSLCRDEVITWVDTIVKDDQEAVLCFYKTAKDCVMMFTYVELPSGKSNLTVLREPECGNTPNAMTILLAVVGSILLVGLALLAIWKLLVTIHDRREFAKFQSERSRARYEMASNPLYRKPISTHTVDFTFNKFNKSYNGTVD

T1 sequence (P06756 31-1048 limits assumed, chain 1 of 2): as the sequence (P06756 31-1048 limits assumed, chain 1 of 2) above
T1 sequence (P05106 27-788 limits assumed, chain 2 of 2): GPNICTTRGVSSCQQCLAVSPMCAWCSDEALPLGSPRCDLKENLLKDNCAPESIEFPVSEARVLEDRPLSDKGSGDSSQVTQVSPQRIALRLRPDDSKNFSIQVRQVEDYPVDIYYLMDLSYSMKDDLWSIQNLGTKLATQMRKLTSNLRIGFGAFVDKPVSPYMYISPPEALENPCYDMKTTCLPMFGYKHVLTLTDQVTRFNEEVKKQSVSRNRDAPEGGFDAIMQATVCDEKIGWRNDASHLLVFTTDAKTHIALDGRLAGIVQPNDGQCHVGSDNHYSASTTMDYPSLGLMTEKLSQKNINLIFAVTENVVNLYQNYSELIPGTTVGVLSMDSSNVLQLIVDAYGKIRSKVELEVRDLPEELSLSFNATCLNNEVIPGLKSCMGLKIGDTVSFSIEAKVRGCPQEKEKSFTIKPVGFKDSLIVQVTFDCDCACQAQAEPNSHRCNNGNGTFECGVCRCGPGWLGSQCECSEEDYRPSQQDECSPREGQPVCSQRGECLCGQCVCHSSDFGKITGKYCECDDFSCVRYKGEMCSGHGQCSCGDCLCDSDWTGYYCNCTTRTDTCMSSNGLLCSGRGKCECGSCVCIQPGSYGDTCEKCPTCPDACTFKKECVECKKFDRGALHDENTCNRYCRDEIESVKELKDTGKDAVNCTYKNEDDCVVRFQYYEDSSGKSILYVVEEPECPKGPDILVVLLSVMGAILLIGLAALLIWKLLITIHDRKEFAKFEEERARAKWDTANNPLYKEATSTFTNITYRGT

binding result (integrin αvβ3): binds
binding result (integrin αvβ5): binds
B1: annexin A5-T7D variant (other)
chain: AQVLRGDVTDFPGFDERADAETLRKAMKGLGTDEESILTLLTSRSNAQRQEISAAFKTLFGRDLLDDLKSELTGKFEKLIVALMKPSRLYDAYELKHALKGAGTNEKVLTEIIASRTPEELRAIKQVYEEEYGSSLEDDVVGDTSGYYQRMLVVLLQANRDPDAGIDEAQVEQDAQALFQAGELKWGTDEEKFITIFGTRSVSHLRKVFDKYMTISGFQIEETIDRETSGNLEQLLLAVVKSIRSIPAYLAETLYYAMKGAGTDDHTLIRVMVSRSEIDLFNIRKEFRKNFATSLYSMIKGDTSGDYKKALLLLCGEDD
modifications: fluorescein (FITC) label, site not stated
notes: Made in E. coli and purified; also called T7D anxA5; RGD-anxA5
